Results reported in ChEMBL document CHEMBL1142494, “Pharmacophore modeling and molecular docking led to the discovery of inhibitors of human immunodeficiency virus-1 replication targeting the human cellular aspartic acid-glutamic acid-alanine-aspartic acid box polypeptide 3” (J Med Chem, 2008).

Compound: O=C(CCN1C(=O)/C(=C/c2cccc(Br)c2)SC1=S)Nc1ccccc1O
Experiment: Inhibition of ATPase activity in human recombinant DDX3 expressed in Escherichia coli by luciferase-based luminescence assay in presence of ATP

B1: ATP-dependent RNA helicase DDX3X (Homo sapiens), O00571 (protein)
chain: MSHVAVENALGLDQQFAGLDLNSSDNQSGGSTASKGRYIPPHLRNREATKGFYDKDSSGWSSSKDKDAYSSFGSRSDSRGKSSFFSDRGSGSRGRFDDRGRSDYDGIGSRGDRSGFGKFERGGNSRWCDKSDEDDWSKPLPPSERLEQELFSGGNTGINFEKYDDIPVEATGNNCPPHIESFSDVEMGEIIMGNIELTRYTRPTPVQKHAIPIIKEKRDLMACAQTGSGKTAAFLLPILSQIYSDGPGEALRAMKENGRYGRRKQYPISLVLAPTRELAVQIYEEARKFSYRSRVRPCVVYGGADIGQQIRDLERGCHLLVATPGRLVDMMERGKIGLDFCKYLVLDEADRMLDMGFEPQIRRIVEQDTMPPKGVRHTMMFSATFPKEIQMLARDFLDEYIFLAVGRVGSTSENITQKVVWVEESDKRSFLLDLLNATGKDSLTLVFVETKKGADSLEDFLYHEGYACTSIHGDRSQRDREEALHQFRSGKSPILVATAVAARGLDISNVKHVINFDLPSDIEEYVHRIGRTGRVGNLGLATSFFNERNINITKDLLDLLVEAKQEVPSWLENMAYEHHYKGSSRGRSKSSRFSGGFGARDYRQSSGASSSSFSSSRASSSRSGGGGHGSSRGFGGGGYGGFYNSDGYGGNYNSQGVDWWGN
**Q.** B1 was tested. Which Ki did it give?
**A.** 4.5 µM
